From IntAct's records for PubMed 17405859

B1: Neuropilin-1 (Rattus norvegicus (Rat)), Q9QWJ9 (parent)
chain: MERGLPLLCATLALALALAGAFRSDKCGGTIKIENPGYLTSPGYPHSYHPSEKCEWLIQAPEPYQRIMINFNPHFDLEDRDCKYDYVEVIDGENEGGRLWGKFCGKIAPSPVVSSGPFLFIKFVSDYETHGAGFSIRYEIFKRGPECSQNYTAPTGVIKSPGFPEKYPNSLECTYIIFAPKMSEIILEFESFDLEQDSNPPGGVFCRYDRLEIWDGFPEVGPHIGRYCGQKTPGRIRSSSGILSMVFYTDSAIAKEGFSANYSVLQSSISEDFKCMEALGMESGEIHSDQITASSQYGTNWSVERSRLNYPENGWTPGEDSYREWIQVDLGLLRFVTAVGTQGAISKETKKKYYVKTYRVDISSNGEDWITLKEGNKAIIFQGNTNPTDVVFGVFPKPLITRFVRIKPASWETGISMRFEVYGCKITDYPCSGMLGMVSGLISDSQITASNQGDRNWMPENIRLVTSRTGWALPPSPHPYINEWLQVDLGDEKIVRGVIIQGGKHRENKVFMRKFKIAYSNNGSDWKMIMDDSKRKAKSFEGNNNYDTPELRAFTPLSTRFIRIYPERATHSGLGLRMELLGCEVEVPTAGPTTPNGNPVDECDDDQANCHSGTGDDFQLTGGTTVLATEKPTIIDSTIQSEFPTYGFNCEFGWGSHKTFCHWEHDSHAQLRWRVLTSKTGPIQDHTGDGNFIYSQADENQKGKVARLVSPVVYSQSSAHCMTFWYHMSGSHVGTLRVKLHYQKPEEYDQLVWMVVGHQGDHWKEGRVLLHKSLKLYQVIFEGEIGKGNLGGIAVDDISINNHIPQEDCAKPTDLDKKNTEIKIDETGSTPGYEEGKGDKNISRKPGNVLKTLDPILITIIAMSALGVLLGAVCGVVLYCACWHNGMSERNLSALENYNFELVDGVKLKKDKLNPQSNYSEA

Variants of: B1
Conditions: with vegfa_human VEGFA

Effect of a mutation on the interaction, disrupting interaction strength:
S346A
T349A
E348A
